Legend:
human ABCG2 [1] = target: T1, human ABCG2 (UniProt Q9UNQ0 1-655); assay: FACS binding to 293T cells
T1 chain: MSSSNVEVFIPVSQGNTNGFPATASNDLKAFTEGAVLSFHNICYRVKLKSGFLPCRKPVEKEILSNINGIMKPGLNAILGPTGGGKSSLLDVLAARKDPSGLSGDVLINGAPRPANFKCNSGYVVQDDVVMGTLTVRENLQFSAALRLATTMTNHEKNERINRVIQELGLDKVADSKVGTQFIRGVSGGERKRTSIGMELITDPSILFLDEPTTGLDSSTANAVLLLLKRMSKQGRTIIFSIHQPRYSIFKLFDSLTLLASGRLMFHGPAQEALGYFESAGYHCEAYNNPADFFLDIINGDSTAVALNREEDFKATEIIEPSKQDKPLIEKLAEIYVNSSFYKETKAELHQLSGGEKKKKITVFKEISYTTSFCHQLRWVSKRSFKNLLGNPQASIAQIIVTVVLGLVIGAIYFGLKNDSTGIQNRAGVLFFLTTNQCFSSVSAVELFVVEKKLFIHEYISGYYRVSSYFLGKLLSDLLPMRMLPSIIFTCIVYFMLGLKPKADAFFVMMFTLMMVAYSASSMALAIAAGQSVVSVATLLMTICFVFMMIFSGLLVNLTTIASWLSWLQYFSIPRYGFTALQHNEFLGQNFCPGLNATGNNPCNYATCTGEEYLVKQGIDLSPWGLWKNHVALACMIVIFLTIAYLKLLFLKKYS

[2] = target: T2, cynomolgus ABCG2 (Macaca fascicularis) (UniProt Q5MB13 1-654); assay: FACS binding to 293T cells
T2 chain: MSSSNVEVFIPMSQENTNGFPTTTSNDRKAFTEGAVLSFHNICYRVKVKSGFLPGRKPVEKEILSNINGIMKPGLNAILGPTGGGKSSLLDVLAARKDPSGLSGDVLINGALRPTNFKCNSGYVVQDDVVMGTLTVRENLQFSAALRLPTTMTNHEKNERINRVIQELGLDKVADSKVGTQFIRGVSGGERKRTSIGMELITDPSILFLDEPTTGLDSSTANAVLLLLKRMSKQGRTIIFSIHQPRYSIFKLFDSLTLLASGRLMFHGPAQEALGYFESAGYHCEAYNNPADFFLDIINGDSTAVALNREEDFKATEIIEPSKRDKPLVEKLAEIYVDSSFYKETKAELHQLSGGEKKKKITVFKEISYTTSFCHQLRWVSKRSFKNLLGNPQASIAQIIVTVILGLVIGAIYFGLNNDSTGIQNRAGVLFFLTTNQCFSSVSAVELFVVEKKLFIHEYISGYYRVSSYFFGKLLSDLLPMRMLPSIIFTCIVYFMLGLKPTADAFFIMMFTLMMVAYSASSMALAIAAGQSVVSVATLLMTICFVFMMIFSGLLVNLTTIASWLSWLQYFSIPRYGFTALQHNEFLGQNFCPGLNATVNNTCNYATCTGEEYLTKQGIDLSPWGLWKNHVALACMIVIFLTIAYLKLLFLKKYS

human ABCG2 [3] = target: T1, human ABCG2; assay: cell binding
[4] = target: T2, cynomolgus ABCG2 (Macaca fascicularis); assay: cell binding
G2_620 = assay: FACS binding, 293T-G2OX cells
h5D3 [5] = assay: FACS binding, 293T-G2OX cells
G2_377 = assay: FACS binding to 293T cells
G2_709 = assay: FACS binding to 293T cells
G2_656 = assay: FACS binding to 293T cells
G2_336 = assay: FACS binding to 293T cells
G2_745 = assay: FACS binding to 293T cells
G2_418 = assay: FACS binding to 293T cells
G2_639 = assay: FACS binding to 293T cells
h5D3 [6] = assay: FACS cell binding
KNJY-G2-333H = assay: FACS cell binding
h5D3 [7] = assay: FACS cell binding; remark: listed apart in the source

B1: G2.643 mouse (antibody, V domains shown)
VH: VNLVESGPELVKPGTSVKISCKASGYRFTSYYVHWVKQRPGQGLEWIGWIFPGSDNTKYNEKFKGKATLTADTSSSTAYMQLSSLTSEDSAVYFCASIYYGYDGTLYFDYWGQGTSVTVSS
VL: DIVMTQSHTFMSTSVGDRVSVTCKASQNVGNNVAWYQQKPGQSPNALIYSASYRYSGVPDRFTGSGSGTDFTLTISNVQSEDLAEYFCQQYDRYPLTFGGGTKLEIK
Kd (human ABCG2 [1]): 5.9 nM | Kd [2]: 17.1 nM | EC50 (human ABCG2 [3]): 27 nM | EC50 [4]: 65 nM

B2: hG2 (other)
chain: T1 chain
Kd (G2_620): 15.8 nM | Kd (h5D3 [5]): 2.99 nM | Kd (G2_377): 16.7 nM | Kd (G2_709): 20.6 nM | Kd (G2_656): 36.8 nM | Kd (G2_336): 28.2 nM | Kd (G2_745): 23.3 nM | Kd (G2_418): 59 nM | Kd (G2_639): 46.8 nM

B3: ABCG2 (other)
chain: T1 chain
Kd (h5D3 [6]): 3.12 nM | Kd (KNJY-G2-333H): 7.5 nM | Kd (h5D3 [7]): 81 nM

Source: patent publication US20230212305A1 (published 2023)
